Here are results for two substances from paper PMC9905677.

Test [1] concerns the target extracellular region of human FcγRIIIa (158V allele), bis-glycosylated (human) (UniProt P08637).
In test [2] the target is soluble form of human FcγRIIIb (NA2 form) composed of the extracellular domains (human) (UniProt O75015). The test can be described thus: NMR titration; 1H-15N HSQC peak intensity attenuation of the 15N-labeled protein (rituximab-Fc 120 μM, rituximab-Fab 240 μM, sFcγRIIIb 120 μM) on adding serum polyclonal IgG 120 μM, its Fab 240 μM or HSA 600 μM; 5 mM sodium phosphate, 50 mM NaCl, pH 7.4, 37°C.
Sequence of UniProt O75015 (O75015 17-200): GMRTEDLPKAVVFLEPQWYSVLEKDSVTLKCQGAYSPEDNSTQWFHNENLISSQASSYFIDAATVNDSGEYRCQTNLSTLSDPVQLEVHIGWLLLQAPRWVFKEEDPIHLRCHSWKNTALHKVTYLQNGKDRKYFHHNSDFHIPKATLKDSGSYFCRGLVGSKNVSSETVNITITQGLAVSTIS

The target of a further test is rituximab-Fab (human). The description is as above.

rituximab (antibody): in test [1], the EC50 of the ADCC reporter assay (Jurkat/FcγRIIIa/NFAT-Luc effector cells, luciferase) stood at 0.02 µg/mL. Consider “human serum albumin (from UniProt P02768 25-609) (natural protein)”, for which the average level of HSQC peak intensity attenuation (Io-Ip)/Io in test [2] was determined as 0.41; with rituximab-Fab (human), 0.6.
